# US20230242662A1
# Substitutions are numbered along the chain they refer to.
# B1: BA-133-04-04 (antibody, V domains shown)
# VH: EVQLVESGGGLVQPGGSLRLSCAASGGSVSSYDISWIRQSPSRGLEWLGVIWTDGGTNYNSAFMSRFTISRDDSKNTAYLQMNSLKTEDTAVYYCERVYDGYPWFAYWGQGTLVTVSS
# VL: AIQLTQSPSSLSASVGDRVTITCRASQGISNYLNWYLQKPGQSPQLLIYYTSSLHEGVPDRFSGSGSGTDFTLKISRVEAEDVGVYYCQQYIKLPWTFGQGTKVEIK
# B2: BA-133-04-02 (antibody, V domains shown)
# VH: B1 VH
# VL: B1 VL with S30A, E56S
# B3: BAP133-2-03-03-SL (antibody, V domains shown)
# VH: B1 VH
# VL: B1 VL with E56S
# B4: BAP133-2-02-12 (antibody, V domains shown)
# VH: B1 VH
# VL: AIQLTQSPSSLSASVGDRVTITCRALQGISNYLNWYQQKPGKAPKLLIYYTSSLHSGVPSRFSGSGSGTEFTLTISSLQPDDFATYYCQQYIKLPWTFGQGTKVEIK
# B5: BA-133-04-01 (antibody, V domains shown)
# VH: B1 VH
# VL: B1 VL with G28W, E56S
# B6: BA-133-04-03 (antibody, V domains shown)
# VH: B1 VH
# VL: B1 VL with H55F, E56S
# B7: Benchmark (BM) BA-133-00-01 (antibody, V domains shown)
# VH: QVQLQESGPGLVKPSETLSLTCTVSGGSVSSYDISWIRQPPGKGLEWIGVIWTDGGTNYNSAFMSRVTISVDTSKNQFSLKLSSVTAADTAVYYCARVYDGYPWFAYWGQGTLVTVSS
# VL: DIQMTQSPSSLSASVGDRVTITCRASQGISNYLNWYQQKPGKAPKLLIYYTSSLHSGVPSRFSGSGSGTDFTLTISSLQPEDFATYYCQQYIKLPWTFGGGTKLEIKR
# Target: CD46 on Colo205 cells (human) (UniProt P15529)
# Experiment: FACS, Colo205 cells that express CD46; EC50 at pH 7.4 over EC50 at pH 6.0
row,Ratio (pH 7.4/6.0),Binder
1,3.9,B1
2,4.2,B2
3,4.4,B3
4,5.2,B4
5,4.6,B5
6,9.7,B6
7,2.6,B7

# Target: CD46 on Colo205 cells (human) (UniProt P15529)
# Experiment: FACS, Colo205 cells that express CD46, pH 7.4
row,EC50,Binder
1,0.96 µg/mL,B1
2,1.57 µg/mL,B2
3,1.48 µg/mL,B3
4,3.63 µg/mL,B4
5,1.66 µg/mL,B5
6,1.47 µg/mL,B6
7,0.513 µg/mL,B7

# Target: human CD46 expressed on 293 cells (human) (UniProt P15529)
# Experiment: FACS, 293 cells expressing human CD46; EC50 at pH 7.4 over EC50 at pH 6.0
row,Ratio (pH 7.4/6.0),Binder
1,2.7,B1
2,3.4,B2
3,2.2,B3
4,3.3,B4
5,4.1,B5
6,2.9,B6
7,2.5,B7

# Target: CD46 on Colo205 cells (human) (UniProt P15529)
# Experiment: FACS, Colo205 cells that express CD46, pH 6.0
row,EC50,Binder
1,0.246 µg/mL,B1
2,0.371 µg/mL,B2
3,0.341 µg/mL,B3
4,0.704 µg/mL,B4
5,0.36 µg/mL,B5
6,0.151 µg/mL,B6
7,0.201 µg/mL,B7

# Target: human CD46 expressed on 293 cells (human) (UniProt P15529)
# Experiment: FACS, 293 cells expressing human CD46, pH 7.4
row,EC50,Binder
1,0.647 µg/mL,B1
2,1.09 µg/mL,B2
3,0.748 µg/mL,B3
4,2.23 µg/mL,B4
5,1.34 µg/mL,B5
6,0.427 µg/mL,B6
7,0.368 µg/mL,B7

# Target: recombinant human CD46 antigen (human) (UniProt P15529)
# Experiment: pH range ELISA (pH 5.5 to 7.4), coated human CD46
row,pH inflection point,Binder
1,6.7 pH,B1
2,6.64 pH,B2
3,6.8 pH,B3
4,6.58 pH,B4
5,6.61 pH,B5

# Target: recombinant human CD46 antigen (human) (UniProt P15529)
# Experiment: ELISA, coated human CD46; EC50 at pH 7.4 over EC50 at pH 6.0
row,ratio (ph 7.4/pH 6.0),Binder
1,3.63,B1
2,3.8,B2
3,3.23,B3
4,7.02,B4
5,3.46,B5
6,2.23,B6
7,1.31,B7

# Target: human CD46 expressed on 293 cells (human) (UniProt P15529)
# Experiment: FACS, 293 cells expressing human CD46, pH 6.0
row,EC50,Binder
1,0.241 µg/mL,B1
2,0.32 µg/mL,B2
3,0.336 µg/mL,B3
4,0.676 µg/mL,B4
5,0.324 µg/mL,B5
6,0.147 µg/mL,B6
7,0.147 µg/mL,B7

# Target: CD46 on Colo205 cells (human) (UniProt P15529)
# Experiment: cell-based or functional assay
Binder,"IC50 of inhibition (cytotoxicity) of Colo205 cells that express CD46, pH 6.0 (test article ADC, CellTiter-Glo)","IC50 of inhibition (cytotoxicity) of Colo205 cells that express CD46, pH 7.4 (test article ADC, CellTiter-Glo)",Ratio (pH 7.4/6.0) of the cytotoxicity IC50 on Colo205 cells
B1,6.58 ng/mL,56 ng/mL,8.51
B3,33.3 ng/mL,253 ng/mL,7.6
B7,4.91 ng/mL,11.6 ng/mL,2.37

# Target: human CD46 expressed on 293 cells (human) (UniProt P15529)
# Experiment: cell-based or functional assay
Binder,"IC50 of in vitro cell killing of 293 cells expressing human CD46, pH 6.0 (test article ADC, CellTiter-Glo)","IC50 of in vitro cell killing of 293 cells expressing human CD46, pH 7.4 (test article ADC, CellTiter-Glo)",Ratio (pH 7.4/6.0) of the killing IC50 on 293 cells expressing human CD46
B1,13.7 ng/mL,39.9 ng/mL,2.91
B3,20.6 ng/mL,90.4 ng/mL,4.38
B7,15.8 ng/mL,23.6 ng/mL,1.5
